From PMC6794382

Biological target: Drosophila melanogaster imaginal morphogenesis protein-late 2 protein (Imp-L2) (Drosophila melanogaster) (UniProt Q09024)
Test: cross-linking; Sulfo-SDA-modified ligand (about 100 μg, 10–20 nmol) incubated with recombinant Imp-L2 (76 μg, about 3 nmol) overnight at 4°C, irradiated at 365 nm for 5 min; SDS-PAGE, western blot with anti-IGF-1, tryptic digest of the excised band and LC-MS/MS (Links, StavroX)

Chain of UniProt Q09024 (Q09024 26-267): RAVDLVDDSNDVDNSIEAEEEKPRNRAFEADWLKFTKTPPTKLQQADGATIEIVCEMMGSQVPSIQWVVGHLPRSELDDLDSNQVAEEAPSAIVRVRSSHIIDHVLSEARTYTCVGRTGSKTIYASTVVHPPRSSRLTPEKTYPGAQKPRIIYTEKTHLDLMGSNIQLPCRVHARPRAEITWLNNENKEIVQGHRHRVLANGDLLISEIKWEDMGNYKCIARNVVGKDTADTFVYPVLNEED

For “des(63-70)-IGF-1 (human IGF-1 lacking the C-terminal D domain amino acids PLKPAKSA, with an additional N-terminal Gly-1) (ligand)”, the percent of Imp-L2 crosslinked was 10 to 20%.
